As usually defined, the Kd is a measure of binding affinity in units of concentration.

Where two headings read alike, the source gives them in different places.

Drawing on article PMC5814829, this text covers binding result and Kd for eight molecules.

The target in data set [1] is T1, ScPif1p (237-780) (Saccharomyces cerevisiae, UniProt P07271 237-780).
T1 sequence: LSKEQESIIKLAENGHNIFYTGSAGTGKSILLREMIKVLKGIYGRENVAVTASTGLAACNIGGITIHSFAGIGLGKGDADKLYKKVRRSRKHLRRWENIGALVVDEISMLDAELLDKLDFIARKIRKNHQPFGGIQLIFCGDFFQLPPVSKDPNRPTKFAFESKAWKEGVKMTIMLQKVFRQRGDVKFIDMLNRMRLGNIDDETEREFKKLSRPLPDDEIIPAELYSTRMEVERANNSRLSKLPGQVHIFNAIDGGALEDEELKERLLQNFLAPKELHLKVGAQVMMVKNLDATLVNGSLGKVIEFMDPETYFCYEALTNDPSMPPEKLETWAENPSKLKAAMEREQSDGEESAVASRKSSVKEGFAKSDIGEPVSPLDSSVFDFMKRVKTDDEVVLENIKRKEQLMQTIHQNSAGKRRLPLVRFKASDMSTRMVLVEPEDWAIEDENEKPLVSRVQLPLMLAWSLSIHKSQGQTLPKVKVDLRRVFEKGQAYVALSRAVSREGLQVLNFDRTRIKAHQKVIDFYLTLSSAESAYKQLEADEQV
The data set can be described thus: crystal structure.

The target in data set [2] is T1, ScPif1p (237-780). The data set can be described thus: SEC-SAXS. In general terms: Size exclusion chromatography separates by hydrodynamic size, large species first.
Data set [3] addresses T1, ScPif1p (237-780). Put plainly: fluorescence anisotropy. (In general: In fluorescence polarisation assays a small probe gives low polarisation when free and higher when bound to something large.)
Data set [4] addresses T2, ScPif1p H303G/H705G (Saccharomyces cerevisiae, UniProt P07271 237-780, H303G;H705G).
T2 sequence: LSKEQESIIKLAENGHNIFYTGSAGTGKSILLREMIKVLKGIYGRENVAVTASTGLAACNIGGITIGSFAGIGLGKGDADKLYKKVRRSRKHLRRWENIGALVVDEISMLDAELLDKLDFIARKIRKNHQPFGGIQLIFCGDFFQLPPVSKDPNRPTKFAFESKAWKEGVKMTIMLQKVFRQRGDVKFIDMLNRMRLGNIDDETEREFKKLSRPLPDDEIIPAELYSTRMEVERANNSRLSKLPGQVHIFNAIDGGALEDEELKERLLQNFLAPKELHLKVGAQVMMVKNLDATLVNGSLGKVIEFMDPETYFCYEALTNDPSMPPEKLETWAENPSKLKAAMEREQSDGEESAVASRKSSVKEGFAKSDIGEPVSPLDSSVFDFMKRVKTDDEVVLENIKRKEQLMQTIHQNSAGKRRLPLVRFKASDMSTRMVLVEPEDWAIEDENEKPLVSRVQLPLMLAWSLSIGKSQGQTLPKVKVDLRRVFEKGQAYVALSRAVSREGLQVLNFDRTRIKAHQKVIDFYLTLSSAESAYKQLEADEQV
Put plainly: fluorescence anisotropy.

Data set [5] concerns the target T1, ScPif1p (237-780). Put plainly: SEC-SAXS, gel filtration.
Data set [6] has as its target T1, ScPif1p (237-780). The data set can be described thus: fluorescence anisotropy. The source holds these as a separate data set.
Data set [7] has as its target T1, ScPif1p (237-780). The data set can be described thus: SEC-SAXS, gel filtration. The source holds these as a separate data set.
The target in data set [8] is T1, ScPif1p (237-780). The data set can be described thus: crystal structure. This is another data set of the same source.

For the molecule TTTGGGTT (ssDNA) [Poly(T3G3T2)], the binding result in data set [1] is given as “binds”.
Take GTGTGGTGTGG (ssDNA) [GR11]: the binding result in data set [2] is “binds”.
For the molecule CUCUGCUCGACG (ssRNA) [F-RNA12 (text: Poly(U12))], the Kd in data set [3] was 163 nM; in data set [4], 70.5 nM.
Turning to AGGGTTAGGGTTAGGGTTAGGG (structured_DNA) [3G4], the binding result in data set [5] is recorded as “binds”.
The molecule TTTTTTTTTTTT (ssDNA) [Poly(T12)] yielded a Kd in data set [6] of 15.1 nM.
GGGTTTTT (ssDNA) [Poly(G3T5)]: the binding result in data set [1] is given as “binds”.
As to TTTTTTTTGGGTGGGTGGGTGGGT (structured_DNA) [8T3G4], the binding result in data set [7] is listed as “binds”.
Regarding TTTTTTTT (ssDNA) [Poly(T8)], the binding result in data set [8] was “binds”.
